# Test results reported in US20210179666A1 (REGENTS OF THE UNIVERSITY OF MINNESOTA, published 2021).
# Like-named read-outs stand apart in the source and are kept apart here. Numbered stars: 1 amine (or outer) side, 2 acyl side, 3 side chain; on linkers, the order of the positions; unused ones are H or OH. Square brackets hold non-standard residues; d marks the D form. N(2-Aminoethyl)Gly = O=C(CN(CCN[*:3])[*:1])[*:2]; Gly(N-(CH2)3-guanidino) = N=C(N)NCCCNCC(=O)O; Nphe = O=C(O)CNCc1ccccc1; Dap = NC[C@H](N)C(=O)O; Sar = CNCC(=O)O
# Legend:
# [1] = biological target: T1, mouse melanocortin 3 receptor (mouse, UniProt P33033 1-323); test: cell-based or functional assay
# T1 sequence (P33033 whole entry): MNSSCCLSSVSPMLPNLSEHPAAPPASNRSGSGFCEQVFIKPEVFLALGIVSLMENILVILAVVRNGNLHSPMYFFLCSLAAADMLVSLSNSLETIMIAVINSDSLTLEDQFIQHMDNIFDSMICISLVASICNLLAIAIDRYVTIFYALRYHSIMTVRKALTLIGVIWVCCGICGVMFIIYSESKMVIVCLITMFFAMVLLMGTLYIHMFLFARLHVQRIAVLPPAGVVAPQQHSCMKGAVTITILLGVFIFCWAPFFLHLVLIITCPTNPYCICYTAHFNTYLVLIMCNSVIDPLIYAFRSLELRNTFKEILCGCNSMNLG
# [2] = biological target: T2, mouse melanocortin 4 receptor (mouse, UniProt P56450 1-332); test: cell-based or functional assay
# T2 sequence (P56450 whole entry): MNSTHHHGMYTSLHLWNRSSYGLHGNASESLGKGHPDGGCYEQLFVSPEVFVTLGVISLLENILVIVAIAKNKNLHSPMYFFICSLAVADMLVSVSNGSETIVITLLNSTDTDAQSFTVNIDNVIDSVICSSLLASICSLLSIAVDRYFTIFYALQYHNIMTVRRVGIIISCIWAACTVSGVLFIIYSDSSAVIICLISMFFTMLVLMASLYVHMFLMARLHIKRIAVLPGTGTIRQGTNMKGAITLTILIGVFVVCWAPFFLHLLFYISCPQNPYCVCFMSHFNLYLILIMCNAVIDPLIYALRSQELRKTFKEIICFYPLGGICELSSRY
# [3] = biological target: T3, mouse melanocortin 1 receptor (mouse, UniProt Q01727 1-315); test: cell-based or functional assay
# T3 sequence (Q01727 whole entry): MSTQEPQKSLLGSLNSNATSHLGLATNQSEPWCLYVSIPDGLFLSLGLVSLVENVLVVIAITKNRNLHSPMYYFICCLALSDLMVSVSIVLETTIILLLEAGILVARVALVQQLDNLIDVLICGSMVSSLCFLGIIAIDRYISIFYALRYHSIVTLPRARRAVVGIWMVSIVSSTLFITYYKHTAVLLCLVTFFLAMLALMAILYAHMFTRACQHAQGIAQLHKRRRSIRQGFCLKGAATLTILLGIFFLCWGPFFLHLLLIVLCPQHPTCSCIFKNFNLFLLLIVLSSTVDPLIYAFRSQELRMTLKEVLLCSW
# [4] = biological target: T3, mouse melanocortin 1 receptor; test: 125I-NDP-MSH competition, HEK293 cells
# [5] = biological target: T2, mouse melanocortin 4 receptor; test: 125I-NDP-MSH competition; fold vs SEQ ID NO: 1 control
# [6] = biological target: T4, human melanocortin 4 receptor (human, UniProt P32245 1-332); test: 125I-NDP-MSH competition, HEK293 cells
# T4 construct: whole, on cells; the assays used the receptor on HEK293 cells; also called hMC4R
# T4 sequence (P32245 whole entry): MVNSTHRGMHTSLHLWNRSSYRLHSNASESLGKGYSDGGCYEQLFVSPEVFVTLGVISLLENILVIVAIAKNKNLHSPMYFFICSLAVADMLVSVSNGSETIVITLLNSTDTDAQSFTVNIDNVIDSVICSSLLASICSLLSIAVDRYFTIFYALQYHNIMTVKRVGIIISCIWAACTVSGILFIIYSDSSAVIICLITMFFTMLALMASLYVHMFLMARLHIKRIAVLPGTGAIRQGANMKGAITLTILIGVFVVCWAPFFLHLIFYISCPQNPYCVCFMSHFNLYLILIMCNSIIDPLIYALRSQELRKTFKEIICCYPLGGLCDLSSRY
# [7] = biological target: T4, human melanocortin 4 receptor; test: cell-based or functional assay
# [8] = biological target: T1, mouse melanocortin 3 receptor; test: cell-based or functional assay; remark: listed apart in the source
# [9] = biological target: T2, mouse melanocortin 4 receptor; test: cell-based or functional assay; remark: listed apart in the source
# [10] = biological target: T3, mouse melanocortin 1 receptor; test: cell-based or functional assay; remark: listed apart in the source
# [11] = biological target: T5, mouse melanocortin 5 receptor (mouse, UniProt P41149 1-325); test: cell-based or functional assay
# T5 sequence (P41149 whole entry): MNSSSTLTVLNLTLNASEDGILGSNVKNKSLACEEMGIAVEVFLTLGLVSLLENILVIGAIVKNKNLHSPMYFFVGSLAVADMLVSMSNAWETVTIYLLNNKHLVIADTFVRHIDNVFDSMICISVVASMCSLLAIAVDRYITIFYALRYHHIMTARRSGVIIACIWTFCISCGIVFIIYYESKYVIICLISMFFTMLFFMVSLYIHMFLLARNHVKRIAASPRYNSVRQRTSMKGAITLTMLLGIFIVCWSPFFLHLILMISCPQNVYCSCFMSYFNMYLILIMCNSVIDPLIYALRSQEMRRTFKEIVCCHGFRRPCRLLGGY
# [12] = biological target: T4, human melanocortin 4 receptor; test: 125I-NDP-MSH competition; fold vs SEQ ID NO: 1 control
# [13] = biological target: T2, mouse melanocortin 4 receptor; test: 125I-NDP-MSH competition, HEK293 cells
# [14] = biological target: T5, mouse melanocortin 5 receptor; test: cell-based or functional assay; remark: listed apart in the source
# [15] = biological target: T5, mouse melanocortin 5 receptor; test: 125I-NDP-MSH competition, HEK293 cells
# [16] = biological target: T1, mouse melanocortin 3 receptor; test: 125I-NDP-MSH competition, HEK293 cells
# [17] = biological target: T1, mouse melanocortin 3 receptor; test: 125I-NDP-MSH competition; fold vs SEQ ID NO: 2 control
# [18] = biological target: T2, mouse melanocortin 4 receptor; test: as above
# [19] = biological target: T3, mouse melanocortin 1 receptor; test: as above
# [20] = biological target: T4, human melanocortin 4 receptor; test: as above
# [21] = biological target: T5, mouse melanocortin 5 receptor; test: as above
binder,measurement,setting,value
cyclo(PRFFNA[Nphe][dP]) [MDE7-26-5c],percent maximal stimulatory response at 100 µM (cAMP),[1],60%
same,"pA2 (Schild analysis, agonist NDP-MSH, cAMP)",[2],< 5.5
same,percent maximal stimulatory response at 100 µM (cAMP),[3],85%
"cyclo(PRFFNAF[dP]) (also: assayed as TFA salt, AgRP 111-116 loop cyclized through DPro-Pro; Asn5 parent scaffold; assayed as TFA salt; also called Compound 1; c[Pro-Arg-Phe-Phe-Asn-Ala-Phe-DPro]) [1 (MDE 6-82-3c)]",IC50,[4],9 µM
cyclo(PHFFNAF[dP]) (Arg111His SNP in the Asn scaffold; also called c[Pro-His-Phe-Phe-Asn-Ala-Phe-DPro]) [ZMK 2-96],Fold Diff,[5],300 fold
same,IC50,[6],22 µM
same,"pA2 (Schild analysis, agonist NDP-MSH, cAMP)",[7],5.8
same,EC50 (cAMP agonist),[8],> 100 µM
same,"pA2 (Schild analysis, agonist NDP-MSH, cAMP)",[8],< 5
same,EC50 (cAMP agonist),[9],> 100 µM
same,"pA2 (Schild analysis, agonist NDP-MSH, cAMP)",[9],5.3
same,percent maximal stimulatory response at 100 µM (cAMP),[10],23%
same,EC50 (cAMP agonist),[11],> 100 µM
same,Fold Diff,[12],300 fold
same,IC50,[13],6700 nM
cyclo(PRYFNAF[dP]) (Phe112Tyr SNP in the Asn scaffold; also called c[Pro-Arg-Tyr-Phe-Asn-Ala-Phe-DPro]) [ZMK 2-110],Fold Diff,[5],100 fold
same,IC50,[6],14.3 µM
same,"pA2 (Schild analysis, agonist NDP-MSH, cAMP)",[7],6.5
same,EC50 (cAMP agonist),[8],> 100 µM
same,"pA2 (Schild analysis, agonist NDP-MSH, cAMP)",[8],5.8
same,EC50 (cAMP agonist),[9],> 100 µM
same,"pA2 (Schild analysis, agonist NDP-MSH, cAMP)",[9],6.1
same,EC50 (cAMP agonist),[10],> 100 µM
same,Fold Diff,[12],2000 fold
same,IC50,[13],2000 nM
PRFFXAFP (head-to-tail cyclic; NPhe (N-benzylglycine) at 3; Dap at 5; DPro at 8) [MDE9-32c],EC50 (cAMP agonist),[1],> 100 µM
same,"pA2 (Schild analysis, agonist NDP-MSH, cAMP)",[1],6.9
same,EC50 (cAMP partial agonist),[3],110 nM
same,"Partial Agonist, percent of NDP-MSH (cAMP)",[3],80%
same,EC50 (cAMP partial agonist),[14],550 nM
same,"Partial Agonist, percent of NDP-MSH (cAMP)",[14],70%
cyclo(PR[Nphe]FNAF[dP]) [MDE9-77c],"pA2 (Schild analysis, agonist NDP-MSH, cAMP)",[2],< 5.5
same,EC50 (cAMP agonist),[3],240 nM
PRFFXAFP (head-to-tail cyclic; NArg (N-(3-guanidino-propyl)-glycine) at 2; Dap at 5; DPro at 8) [MDE8-108-3c],EC50 (cAMP agonist),[1],> 100 µM
same,"pA2 (Schild analysis, agonist NDP-MSH, cAMP)",[1],5.9
same,EC50 (cAMP agonist),[3],> 100000 nM
same,EC50 (cAMP agonist),[14],> 100 µM
cyclo(PRFFN[Sar]F[dP]) (SMILES CN1CC(=O)N[C@@H](Cc2ccccc2)C(=O)N2CCC[C@@H]2C(=O)N2CCC[C@H]2C(=O)N[C@@H](CCCNC(=N)N)C(=O)N[C@@H](Cc2ccccc2)C(=O)N[C@@H](Cc2ccccc2)C(=O)N[C@@H](CC(N)=O)C1=O) [MDE7-26-4c],"pA2 (Schild analysis, agonist NDP-MSH, cAMP)",[2],< 5.5
same,EC50 (cAMP agonist),[3],1000 nM
cyclo(PRF[Nphe]NAF[dP]) [MDE9-88c],"pA2 (Schild analysis, agonist NDP-MSH, cAMP)",[2],8.4
same,EC50 (cAMP partial agonist),[3],5600 nM
same,"Partial Agonist, percent of NDP-MSH (cAMP)",[3],70%
PRFFXAFP (head-to-tail cyclic; Dap at 5; NPhe (N-benzylglycine) at 7; DPro at 8) [MDE8-108-7c],EC50 (cAMP agonist),[1],> 100 µM
same,"pA2 (Schild analysis, agonist NDP-MSH, cAMP)",[2],6.6
same,EC50 (cAMP agonist),[3],> 100000 nM
same,"Inverse Agonist, percent decrease from basal (cAMP)",[14],-10%
PRFFXAFP (head-to-tail cyclic; NPhe (N-benzylglycine) at 4; Dap at 5; DPro at 8) [MDE9-93c],EC50 (cAMP agonist),[1],> 100 µM
same,"pA2 (Schild analysis, agonist NDP-MSH, cAMP)",[1],7.1
same,EC50 (cAMP partial agonist),[3],2700 nM
same,"Partial Agonist, percent of NDP-MSH (cAMP)",[3],60%
same,"Inverse Agonist, percent decrease from basal (cAMP)",[14],-10%
"PRFFXAFP (head-to-tail cyclic; Dap (diaminopropionic acid) at 5; DPro at 8, Dap5 parent scaffold; assayed as TFA salt; also called Compound 2; c[Pro-Arg-Phe-Phe-Dap-Ala-Phe-DPro]) [2 (MDE 6-82-1c)]","pA2 (Schild analysis, agonist NDP-MSH, cAMP)",[1],6.5
same,percent maximal stimulatory response at 100 µM (cAMP),[1],20%
same,percent maximal stimulatory response at 100 µM (cAMP),[3],36%
same,"Inverse Agonist, percent decrease from basal (cAMP)",[14],-10%
same,IC50,[4],5.2 µM
same,IC50,[15],1.7 µM
cyclo(PRFF[Dap]VF[dP]) (Ala115Val SNP in the Dap scaffold; also called c[Pro-Arg-Phe-Phe-Dap-Val-Phe-DPro]) [ZMK 2-85],IC50,[6],0.0322 µM
same,"pA2 (Schild analysis, agonist NDP-MSH, cAMP)",[7],7.6
same,"pA2 (Schild analysis, agonist NDP-MSH, cAMP)",[8],6.1
same,percent maximal stimulatory response at 100 µM (cAMP),[8],27%
same,percent maximal stimulatory response at 100 µM (cAMP),[9],37%
same,percent maximal stimulatory response at 100 µM (cAMP),[10],79%
same,EC50 (cAMP agonist),[11],> 100 µM
same,"pA2 (Schild analysis, agonist NDP-MSH, cAMP)",[11],6.3
same,IC50,[16],10 µM
same,IC50,[4],8 µM
same,IC50,[15],2.7 µM
cyclo(PCFF[Dap]AF[dP]) (Arg111Cys SNP in the Dap scaffold; also called c[Pro-Cys-Phe-Phe-Dap-Ala-Phe-DPro]) [ZMK 3-20],Fold Diff,[17],15 fold
same,Fold Diff,[18],5200 fold
same,Fold Diff,[19],6 fold
same,IC50,[6],15.7 µM
same,"pA2 (Schild analysis, agonist NDP-MSH, cAMP)",[7],< 5
same,"pA2 (Schild analysis, agonist NDP-MSH, cAMP)",[8],< 5
same,percent maximal stimulatory response at 100 µM (cAMP),[8],29%
same,"pA2 (Schild analysis, agonist NDP-MSH, cAMP)",[9],< 5
same,percent maximal stimulatory response at 100 µM (cAMP),[9],42%
same,EC50 (cAMP agonist),[10],4 µM
same,EC50 (cAMP agonist),[11],> 100 µM
same,IC50,[16],49 µM
same,IC50,[13],10000 nM
same,IC50,[4],33 µM
same,Fold Diff,[20],2100 fold
cyclo(PHFF[Dap]AF[dP]) (Arg111His SNP in the Dap scaffold; also called c[Pro-His-Phe-Phe-Dap-Ala-Phe-DPro]) [ZMK 2-99],Fold Diff,[17],5 fold
same,Fold Diff,[18],500 fold
same,Fold Diff,[19],5 fold
same,Fold Diff,[21],7 fold
same,IC50,[6],2.7 µM
same,"pA2 (Schild analysis, agonist NDP-MSH, cAMP)",[7],6.4
same,EC50 (cAMP agonist),[8],> 100 µM
same,"pA2 (Schild analysis, agonist NDP-MSH, cAMP)",[8],5.4
same,EC50 (cAMP agonist),[9],> 100 µM
same,"pA2 (Schild analysis, agonist NDP-MSH, cAMP)",[9],6
same,percent maximal stimulatory response at 100 µM (cAMP),[10],56%
same,EC50 (cAMP agonist),[11],> 100 µM
same,IC50,[16],15 µM
same,IC50,[13],1000 nM
same,IC50,[4],25 µM
same,IC50,[15],12 µM
same,Fold Diff,[20],400 fold
cyclo(PRYF[Dap]AF[dP]) (Phe112Tyr SNP in the Dap scaffold; also called c[Pro-Arg-Tyr-Phe-Dap-Ala-Phe-DPro]) [ZMK 2-112],Fold Diff,[17],9 fold
same,Fold Diff,[18],70 fold
same,Fold Diff,[19],4 fold
same,Fold Diff,[21],20 fold
same,IC50,[6],1.02 µM
same,"pA2 (Schild analysis, agonist NDP-MSH, cAMP)",[7],7.5
same,EC50 (cAMP agonist),[8],> 100 µM
same,"pA2 (Schild analysis, agonist NDP-MSH, cAMP)",[8],6.5
same,EC50 (cAMP agonist),[9],> 100 µM
same,"pA2 (Schild analysis, agonist NDP-MSH, cAMP)",[9],7.3
same,percent maximal stimulatory response at 100 µM (cAMP),[10],48%
same,EC50 (cAMP agonist),[11],> 100 µM
same,"pA2 (Schild analysis, agonist NDP-MSH, cAMP)",[11],6.5
same,IC50,[16],28 µM
same,IC50,[13],134 nM
same,IC50,[4],18 µM
same,IC50,[15],36 µM
same,Fold Diff,[20],100 fold
PRFFXAFP (head-to-tail cyclic; Dap at 5; NAla (N-methylglycine) at 6; DPro at 8) [MDE8-108-6c],EC50 (cAMP agonist),[1],> 100 µM
same,"pA2 (Schild analysis, agonist NDP-MSH, cAMP)",[1],5.6
same,"pA2 (Schild analysis, agonist NDP-MSH, cAMP)",[2],6.1
same,EC50 (cAMP agonist),[3],> 100000 nM
same,EC50 (cAMP agonist),[14],> 100 µM
cyclo(PRFF[N(2-Aminoethyl)Gly]AF[dP]) [MDE9-111c],EC50 (cAMP agonist),[1],> 100 µM
same,"pA2 (Schild analysis, agonist NDP-MSH, cAMP)",[1],6.9
same,percent maximal stimulatory response at 100 µM (cAMP),[3],60%
same,"Inverse Agonist, percent decrease from basal (cAMP)",[14],-10%
cyclo(P[Gly(N-(CH2)3-guanidino)]FFNAF[dP]) (SMILES C[C@@H]1NC(=O)[C@H](CC(N)=O)NC(=O)[C@H](Cc2ccccc2)NC(=O)[C@H](Cc2ccccc2)NC(=O)CN(CCCNC(=N)N)C(=O)[C@@H]2CCCN2C(=O)[C@H]2CCCN2C(=O)[C@H](Cc2ccccc2)NC1=O) [MDE7-26-1c],"pA2 (Schild analysis, agonist NDP-MSH, cAMP)",[2],< 5.5
same,EC50 (cAMP partial agonist),[3],3100 nM
same,"Partial Agonist, percent of NDP-MSH (cAMP)",[3],50%
